Source: publication PMC2654920, “Borrelia recurrentis Employs a Novel Multifunctional Surface Protein with Anti-Complement, Anti-Opsonic and Invasive Potential to Escape Innate Immunity” (PLoS ONE, 2009)

What was measured:
[1] = target: T1, human complement factor H (human, UniProt P08603 19-1231); experiment: ELISA; competition inhibition assay: HcpA (2 µg/ml) coated; constant CFH (3 µg/ml in the methods, 2 µg/ml in the results) with PLG 0.001-100 µg/ml, or constant PLG (10 µg/ml) with CFH 0.001-100 µg/ml; details: both partners purified
T1 construct: complement factor H, human, 20 short consensus repeats (SCRs); purified protein or as present in normal human serum; purified human factor H of Calbiochem is the only one named; also called CFH; source: bought: Calbiochem (purified human factor H); also in normal human serum

recombinant CFHR-1 = target: T2, recombinant CFHR-1 (human, UniProt Q03591 19-330); experiment: far-Western, overlay or dot blot; ligand affinity blot: purified recombinant HcpA separated by SDS-PAGE, on nitrocellulose strips, incubated with recombinant CFHL-1, CFH deletion constructs or recombinant CFHR-1; anti-CFH immune serum, mAb JHD7 or JHD8; details: both partners purified
T2 construct: complement factor H-related protein 1, human, recombinant; also called CFH-related protein 1
T2 sequence: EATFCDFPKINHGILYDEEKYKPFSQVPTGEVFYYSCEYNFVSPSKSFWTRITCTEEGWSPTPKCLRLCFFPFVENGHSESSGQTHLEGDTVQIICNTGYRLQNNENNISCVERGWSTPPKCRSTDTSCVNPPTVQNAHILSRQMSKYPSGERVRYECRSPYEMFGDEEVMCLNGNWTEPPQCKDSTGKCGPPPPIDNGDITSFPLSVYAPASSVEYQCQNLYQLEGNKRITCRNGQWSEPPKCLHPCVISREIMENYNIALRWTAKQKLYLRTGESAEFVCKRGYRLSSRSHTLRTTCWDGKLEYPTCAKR

B1: recombinant full-length HcpA (residues 18 to 175) of B. recurrentis A1 (domain or fragment)
chain: LLSKNANLQPKTLETLESNIDDGQKQALAFFQESLQDNKHLDALKQAQSALLKDIKDKPQKTLNFKYNKTKLEQLFRKLGNDKTKQFLKNLHVTIKFINNGSFQSFSSANFNDLDTLEKKQERAINSIKEELYVNYYLYTNELVDLDYFFYRAMNYLS
notes: HcpA, surface lipoprotein of B. recurrentis A1, residues 18-175, lacking the hydrophobic leader peptide; cloned into pQE-30Xa with primers BrBam and BrSal; also called intact HcpA; source: E. coli JM109, purified as recommended by the manufacturer (Qiagen); not shown: His6, N-terminal, kept
- binding result [1]: binds
- binding result (recombinant CFHR-1): binds
